In patent publication US20200095340A1:

Legend:
[1] = target: human DLL3 on DMS-153 cells (human) (UniProt Q9NYJ7); experiment: cell-based or functional assay
[2] = target: biotinylated human DLL3 protein expressed as a human IgG1 fusion protein (human) (UniProt Q9NYJ7); experiment: Octet, biotinylated human DLL3-IgG1 fusion on streptavidin tips, single 50 nM, conditioned medium (relative KD)
Sequence of biotinylated human DLL3 protein expressed as a human IgG1 fusion protein (human) (Q9NYJ7 27-492): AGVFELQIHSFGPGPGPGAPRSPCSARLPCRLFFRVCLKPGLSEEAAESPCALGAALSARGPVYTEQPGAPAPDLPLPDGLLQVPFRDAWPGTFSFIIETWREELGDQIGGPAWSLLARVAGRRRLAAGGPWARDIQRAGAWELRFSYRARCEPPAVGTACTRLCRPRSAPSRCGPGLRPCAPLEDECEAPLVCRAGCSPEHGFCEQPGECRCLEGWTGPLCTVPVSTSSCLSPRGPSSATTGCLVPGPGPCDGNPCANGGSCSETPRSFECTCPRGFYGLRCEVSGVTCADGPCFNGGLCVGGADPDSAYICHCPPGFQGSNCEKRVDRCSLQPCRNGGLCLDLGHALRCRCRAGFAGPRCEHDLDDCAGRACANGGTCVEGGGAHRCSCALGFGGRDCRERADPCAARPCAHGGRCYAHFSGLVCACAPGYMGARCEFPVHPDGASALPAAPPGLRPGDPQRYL

Sequence of human DLL3 on DMS-153 cells (human) (Q9NYJ7 27-618 limits assumed): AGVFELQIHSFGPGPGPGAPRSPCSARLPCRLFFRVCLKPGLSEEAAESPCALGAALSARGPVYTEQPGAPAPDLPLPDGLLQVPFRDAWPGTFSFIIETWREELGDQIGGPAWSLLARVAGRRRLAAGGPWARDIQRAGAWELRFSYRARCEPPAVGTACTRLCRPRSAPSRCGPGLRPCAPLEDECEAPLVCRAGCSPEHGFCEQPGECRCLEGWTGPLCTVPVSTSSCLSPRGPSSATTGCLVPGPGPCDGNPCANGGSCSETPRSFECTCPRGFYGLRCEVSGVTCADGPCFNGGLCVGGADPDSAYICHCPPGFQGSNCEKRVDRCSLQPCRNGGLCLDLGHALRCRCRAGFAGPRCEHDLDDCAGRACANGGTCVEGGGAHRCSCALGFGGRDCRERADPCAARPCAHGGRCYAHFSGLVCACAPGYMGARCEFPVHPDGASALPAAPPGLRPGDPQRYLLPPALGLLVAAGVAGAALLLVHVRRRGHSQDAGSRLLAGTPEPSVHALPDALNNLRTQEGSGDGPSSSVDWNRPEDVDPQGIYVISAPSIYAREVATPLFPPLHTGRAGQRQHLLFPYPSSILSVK

Binder | Kd [2] | other results
anti-DLL3 trispecific protein, DLL3 binder 2E010 (protein, part only; not given: anti-CD3 and anti-albumin domains, part only) chain, part: EVQLVESGGGLVQPGGSLTLSCVASGSTSSINAMAWYRRAPGKQRELVAGISSDGSKVYADSVKGRFTISRDNAKNSVYLQMNSLRAEDTAVYYCYYFHTVSGSSMRYWGQGTLVTVSSGGGGSGGGSGGGGSGGGSHHHHHH |  | DMS-153 TDCC EC50 (conditioned medium, human T cells) [1]: 31 pM
anti-DLL3 trispecific protein, DLL3 binder 1F08 (protein, part only; not given: anti-CD3 fragment and anti-albumin sdAb, part only) chain, part: EVQLVESGGGLVQPGGSLTLSCVASGSTSSINAMAWYRRAPGKQRELVAGISSDGSKVYKDSVKGRFTISRDNAKNSVYLQMNSLRAEDTAVYYCYYFRNVSGSSMRYWGQGTLVTVSSGGGGSGGGSGGGGSGGGSHHHHHH | 31 nM | 
anti-DLL3 trispecific protein, DLL3 binder 1F09 (protein, part only; not given: CD3 binder and albumin binder, part only) chain, part: EVQLVESGGGLVQPGGSLTLSCVASGNTSSINAMGWYRRAPGKQRELVAGISSNGSKVYADSVKGRFTISRDNAKNSVYLQMNSLRAEDTAVYYCYYFRTVTGSSMRYWGQGTLVTVSSGGGGSGGGSGGGGSGGGSHHHHHH | 35 nM | 
anti-DLL3 trispecific protein, DLL3 binder 1G06 (protein, part only; not given: anti-CD3 fragment and anti-albumin sdAb, part only) chain, part: EVQLVESGGGLVQPGGSLTLSCVASGSTSSINAIGWYRRAPGKQRELVAGISSDGSKVYAVSVKGRFTISRDNAKNSVYLQMNSLRAEDTAVYYCYYFRKVSGSSARYWGQGTLVTVSSGGGGSGGGSGGGGSGGGSHHHHHH | 26 nM | 
anti-DLL3 trispecific protein, DLL3 binder 2F11 (protein, part only; not given: anti-CD3 and anti-albumin domains, part only) chain, part: EVQLVESGGGLVQPGGSLTLSCVASGSVSSINAMGWYRRAPGKQRELVAGISSDGSKVYKDSVKGRFTISRDNAKNSVYLQMNSLRAEDTAVYYCYYFRTVSGSSMGYWGQGTLVTVSSGGGGSGGGSGGGGSGGGSHHHHHH |  | DMS-153 TDCC EC50 (conditioned medium, human T cells) [1]: 49 pM
anti-DLL3 trispecific protein, DLL3 binder 1C08 (protein, part only; not given: CD3 fragment and albumin sdAb, part only) chain, part: EVQLVESGGGLVQPGGSLTLSCVASGSTSRINAMGWYRRAPGKQRELPAGISSDGSKVYAVSVKGRFTISRDNAKNSVYLQMNSLRAEDTAVYYCYYFRTVSGSPMRYWGQGTLVTVSSGGGGSGGGSGGGGSGGGSHHHHHH | 25 nM | 
anti-DLL3 trispecific protein, DLL3 binder 2F08 (protein, part only; not given: anti-CD3 fragment and anti-albumin domain, part only) chain, part: EVQLVESGGGLVQPGGSLTLSCVASGSKSSINAMGWYRRAPGKQRELPAGISSNGTKVYADSAKVRFTISRDNAKNSVYLQMNSLRAEDTAVYYCYYFRTVLGTSMRYWGQGTLVTVSSGGGGSGGGSGGGGSGGGSHHHHHH | 20 nM | 
anti-DLL3 trispecific protein, DLL3 binder 2E01 (protein, part only; not given: anti-CD3 and anti-albumin domains, part only) chain, part: EVQLVESGGGLVQPGGSLTLSCVASGSTSSINAMGWYRRAPFKQGELPAGISPDGTKAYADSAKVRFTISRDNAKNSVYLQMNSLRAEDTAVYYCYYFHTVCGTSMGYWGQGTLVTVSSGGGGSGGGSGGGGSGGGSHHHHHH |  | DMS-153 TDCC EC50 (conditioned medium, human T cells) [1]: 33 pM
anti-DLL3 trispecific protein, DLL3 binder 4D011 (protein, part only; not given: CD3 binder and albumin binder, part only) chain, part: EVQLVESGGGLVQPGGSLTLSCAASGSSVRFLSMAWYRQAPGKKRELVAGISVDGSTDYIDSVKGRFTISRDNAKNSVYLQMNSLRAEDTAVYYCYAYRWRTRYTYWGQGTLVTVSSGGGGSGGGSGGGGSGGGSHHHHHH |  | TDCC EC50 (CHO expressed, purified protein; method of Example 2, DMS-153 cells) [1]: 98 pM
anti-DLL3 trispecific protein, DLL3 binder 4E02 (protein, part only; not given: anti-CD3 and anti-albumin domains, part only) chain, part: EVQLVESGGGLVQPGGSLTLSCAASGSQVSFLSMAWYRQAPGKKRELVAGISADGSTVYIDSVKGRFTISRDNAKNSVYLQMNSLRAEDTAVYYCYAYRWSTRYTYWGQGTLVTVSSGGGGSGGGSGGGGSGGGSHHHHHH |  | DMS-153 TDCC EC50 (conditioned medium, human T cells) [1]: 41 pM
anti-DLL3 trispecific protein, DLL3 binder 4B011 (protein, part only; not given: CD3 binder and albumin binder, part only) chain, part: EVQLVESGGGLVQPGGSLTLSCAASGSSVTFLSMAWYRQAPGKKRELVAGISADGSTVYIDSVKGRFTISRDNAKNSVYLQMNSLRAEDTAVYYCYAYRWTTRGTYWGQGTLVTVSSGGGGSGGGSGGGGSGGGSHHHHHH |  | DMS-153 TDCC EC50 (conditioned medium, human T cells) [1]: 48 pM
anti-DLL3 trispecific protein, DLL3 binder 4H01 (protein, part only; not given: CD3 binder and albumin binder, part only) chain, part: EVQLVESGGGLVQPGGSLTLSCAASGSSVSFLSMAWYRQAPGKKRELVAGISANGSTDYYDSVKGRFTISRDNAKNSVYLQMNSLRAEDTAVYYCYAYRWRTRYTYWGQGTLVTVSSGGGGSGGGSGGGGSGGGSHHHHHH | 21 nM | 
anti-DLL3 trispecific protein, DLL3 binder 3B09 (protein, part only; not given: CD3 binder and albumin binder, part only) chain, part: EVQLVESGGGLVQPGGSLTLSCAASGSHVSFLSMAWYRQAPGKKRELVAGISANGSTDYIDSVKGRFTISRDNAKNSVYLQMNSLRAEDTAVYYCYAYRWTTRYAYWGQGTLVTVSSGGGGSGGGSGGGGSGGGSHHHHHH | 20 nM | 
anti-DLL3 trispecific protein, DLL3 binder 4D03 (protein, part only; not given: anti-CD3 fragment and anti-albumin domain, part only) chain, part: EVQLVESGGGLVQPGGSLTLSCAASGSSVRFLSMAWYRQAPGKKRELVAGISATGSTDYIDSVKGRFTISRDNAKNSVYLQMNSLRAEDTAVYYCYAYRWTRRYTYWGQGTLVTVSSGGGGSGGGSGGGGSGGGSHHHHHH | 26 nM | 
anti-DLL3 trispecific protein, DLL3 binder 4H11-M34L (protein, part only; not given: anti-CD3 and anti-albumin domains, part only) chain, part: EVQLVESGGGLVQPGGSLTLSCAASGSSVSRLSLAWYRQAPGKKRELVAGISVDGSTDYIDSVKGRFTISRDNAKNSVYLQMNSLRAEDTAVYYCYAYRWTTRLTYWGQGTLVTVSSGGGGSGGGSGGGGSGGGSHHHHHH |  | TDCC EC50 (CHO expressed, purified protein; method of Example 2, DMS-153 cells) [1]: 130 pM
anti-DLL3 trispecific protein, DLL3 binder 3B04 (protein, part only; not given: CD3 binder and albumin binder, part only) chain, part: EVQLVESGGGLVQPGGSLTLSCAASGSNVSFLSMAWYRQAPGKKRELVAGISARGSTDYIDSVKGRFTISRDNAKNSVYLQMNSLRAEDTAVYYCYAYHWTTRYTYWGQGTLVTVSSGGGGSGGGSGGGGSGGGSHHHHHH | 24 nM | 
anti-DLL3 trispecific protein, DLL3 binder 3D09 (protein, part only; not given: anti-CD3 fragment and anti-albumin domain, part only) chain, part: EVQLVESGGGLVQPGGSLTLSCAASGSSVSRLSMAWYRQAPGKKRELVAGISANGSTTYIDSVKGRFTISRDNAKNSVYLQMNSLRAEDTAVYYCYAYRWTTRYRYWGQGTLVTVSSGGGGSGGGSGGGGSGGGSHHHHHH | 32 nM | 
anti-DLL3 trispecific protein, DLL3 binder 4H05 (protein, part only; not given: anti-CD3 fragment and anti-albumin sdAb, part only) chain, part: EVQLVESGGGLVQPGGSLTLSCAASGSSVSRLSMAWYRQAPGKKRELVAGISARGSTDYIDSVKGRFTISRDNAKNSVYLQMNSLRAEDTAVYYCYAYRWTTRSTYWGQGTLVTVSSGGGGSGGGSGGGGSGGGSHHHHHH | 64 nM | 
anti-DLL3 trispecific protein, DLL3 binder 4D02 (protein, part only; not given: CD3 fragment and albumin sdAb, part only) chain, part: EVQLVESGGGLVQPGGSLTLSCAASGSKVSFLSMAWYRQAPGKKRELVAGISARGSTDYIDSVKGRFTISRDNAKNSVYLQMNSLRAEDTAVYYCYAYQWTTRYTYWGQGTLVTVSSGGGGSGGGSGGGGSGGGSHHHHHH | 30 nM | 
anti-DLL3 trispecific protein, DLL3 binder 4A08 (protein, part only; not given: CD3 binder and albumin binder, part only) chain, part: EVQLVESGGGLVQPGGSLTLSCAASGSSVSFLSMAWYRQAPGKKRELVAGISADGSTNYIDSVKGRFTISRDNAKNSVYLQMNSLRAEDTAVYYCYAYRWRTRYTYWGQGTLVTVSSGGGGSGGGSGGGGSGGGSHHHHHH | 24 nM | 
anti-DLL3 trispecific protein, DLL3 binder 4G03 (protein, part only; not given: CD3 binder and albumin binder, part only) chain, part: EVQLVESGGGLVQPGGSLTLSCAASGSSVKFLSMAWYRQAPGKKRELVAGISADGSTDYIHSVKGRFTISRDNAKNSVYLQMNSLRAEDTAVYYCYAYRWTRRYTYWGQGTLVTVSSGGGGSGGGSGGGGSGGGSHHHHHH | 20 nM | 
anti-DLL3 trispecific protein, DLL3 binder 4A04 (protein, part only; not given: CD3 binder and albumin binder, part only) chain, part: EVQLVESGGGLVQPGGSLTLSCAASGSRVSFLSMAWYRQAPGKKRELVAGISARGSTDYIDSVKGRFTISRDNAKNSVYLQMNSLRAEDTAVYYCYAYRWSTRYTYWGQGTLVTVSSGGGGSGGGSGGGGSGGGSHHHHHH | 35 nM | 
